The values below come from article PMC7352223 (2020).

No end group written: not given here.

For one experiment, the target named is T1, S100A1 (Homo sapiens, UniProt P23297).
T1 chain: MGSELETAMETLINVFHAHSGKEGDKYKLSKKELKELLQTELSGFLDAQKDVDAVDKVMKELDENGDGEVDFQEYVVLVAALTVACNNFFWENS
The experiment can be described thus: fluorescence anisotropy. A general note: In fluorescence polarisation assays a small probe gives low polarisation when free and higher when bound to something large.

In the next experiment the target is Calmodulin (Homo sapiens, UniProt P0DP23). The experiment can be described thus: fluorescence anisotropy.

The term Kd denotes a measure of binding affinity in units of concentration. The low end stands for higher affinity, the high end for lower affinity. Turning to FGECYRSSEVRAARLLLRRCPL (cysteine pairing not given here; also: Ca2+) [TRPM4 (M4nt_WT)], the dissociation constant (Kd) with S100A1 was 2700 nM; with Calmodulin it was 1300 nM.
Turning to PFIVISHLRLLLRQLCRRPRS (also: Ca2+) [TRPM4 (M4ct_WT)], the Kd was 12000 nM in the experiment with S100A1 and 2600 nM in the experiment with Calmodulin.
